In data set [1] the target is MBP-APO1 mXT (dimeric form) M46A;R48S;I80T;W121A;L173A;W199A;F205A;del1-14 (human) (UniProt P41238). The data set is described as follows: EMSA. The settings on record: no A1CF; dimeric form; 50 nM nucleic acid, 20 mM HEPES, 50 mM NaCl, 5 mM DTT, 10% glycerol (0.4 U RNase inhibitor for RNA), pH not stated for EMSA (HEPES pH 7.5 in protein buffers) …. (Mobility shift assays separate free from complexed probe on a gel.)

Data set [2] addresses MBP-APO1 mXT (aggregated form) M46A;R48S;I80T;W121A;L173A;W199A;F205A;del1-14 (human) (UniProt P41238). The data set is described as follows: EMSA. The settings on record: no A1CF; aggregated form; weaker than WT; 50 nM nucleic acid, 20 mM HEPES, 50 mM NaCl, 5 mM DTT, 10% glycerol (0.4 U RNase inhibitor for RNA), pH not stated for EMSA (HEPES pH 7.5 in protein buffers) ….

The values that follow come from PMC7556403.

As usually defined, the Kd is the free concentration of one partner at which half of the binding sites on the other are occupied at equilibrium, for simple one-to-one binding. With “GGAUAUAUGAUACAAUUUGAUCAGUAUAUUAAAGAUAGUUAUGAUUUACAUGAUU [APOB RNA 55 nt]”, the dissociation constant Kd worked out at 140 nM in data set [1] and 460 nM in data set [2].
